B1: human Hsp90α two-domain construct MC (293-732) (domain or fragment)
chain: not shown
B2: human Hsp90α full-length protein without part of the N-M linker (Hsp90Δ; 1-732, 241-268 deleted) (natural protein)
chain: not shown

Target: the molecule itself
Assay: SEC

Protein	stoichiometry N
B1	2
B2	2
